Measurements: patent US20240084017A1 (ASCENDO BIOTECHNOLOGY, published 2024)

Experiments:
[1] = biological target: T1, human Mac-1 (integrin αMβ2, CD11b/CD18) (human, UniProt P11215 17-1152; P05107 23-769); assay: flow cytometry, HEK293/Mac-1 cells, PBS/MnCl2 (Mn2+), 10 µg/ml of this antibody; binding of reporter mAb KIM127 read
Procedure: (§1) The HEK293/Mac-1 cells (clone1-4) were counted and washed twice with staining buffer (PBS containing 1% FBS, and 0.1% sodium azide). Cells were adjusted at a concentration of 1×10⁵ cells/ml in staining buffer and treated with/without 0.25 mM MnCl₂ (Sigma). Cells were treated with anti-Mac-1 antibodies and fluorescent conjugated anti-human IgG4 antibodies and incubated for 15 mins. After washing with the staining buffer, the cells were analyzed by flow cytometry. In some examples, these cells were treated with the antibodies (ICRF44, KIM127, m24, or isotype control) in the presence or absence 10 μg/ml anti-Mac-1 antibodies. The cells were then incubated at 37° C. for 30 min. After washing with the staining buffer, the cells were analyzed by flow cytometry.
(§2) TABLE IV The anti-Mac-1 antibody can serve as an antagonist to reduce the conformational change of Mac-1. HEK293/Mac-1 cells (clone1-4) were incubated with 10 μg/ml anti-Mac-1 antibodies under the PBS/MnCl₂ (Mn²⁺) condition. Binding of KIM127 or m24 was detected using flow cytometry.

[2] = biological target: T1, human Mac-1 (integrin αMβ2, CD11b/CD18); assay: flow cytometry, HEK293/Mac-1 cells (clone 1-4), PBS/MnCl2 (Mn2+)
Procedure: as §1
(§3) TABLE II The anti-Mac-1 antibodies selectively bind to different statuses of human Mac-1. HEK293/Mac-1 cells (clone1-4) were incubated in PBS (Mock), or PBS/MnCl₂ (Mn²⁺). Binding of isotype control IgG, the CD11b specific mAb (ICRF44), the CD11b activation-sensing mAb (CBRM1/5), or the screened anti-Mac-1 antibody was detected using flow cytometry.

[3] = biological target: T1, human Mac-1 (integrin αMβ2, CD11b/CD18); assay: flow cytometry, HEK293/Mac-1 cells; MFI in PBS over MFI in PBS/MnCl2
Procedure: as §1, §3

[4] = biological target: T1, human Mac-1 (integrin αMβ2, CD11b/CD18); assay: flow cytometry, HEK293/Mac-1 cells, PBS/MnCl2 (Mn2+), 10 µg/ml of this antibody; binding of reporter mAb m24 read
Procedure: as §1, §2

[5] = biological target: T1, human Mac-1 (integrin αMβ2, CD11b/CD18); assay: flow cytometry, HEK293/Mac-1 cells (clone 1-4), PBS (Mock)
Procedure: as §1, §3

[6] = biological target: T1, human Mac-1 (integrin αMβ2, CD11b/CD18); assay: flow cytometry, HEK293/Mac-1 cells, PBS (Mock), 10 µg/ml of this antibody; binding of reporter mAb m24 read
Procedure: as §1
(§4) TABLE III The anti-Mac-1 antibodies can serve as agonist to enhance the conformational change of Mac-1. HEK293/Mac-1 cells (clone1-4) were incubated with 10 μg/ml anti-Mac-1 antibodies under the PBS (Mock) condition. Binding of KIM127 or m24 was detected using flow cytometry.

[7] = biological target: T1, human Mac-1 (integrin αMβ2, CD11b/CD18); assay: flow cytometry, HEK293/Mac-1 cells, PBS (Mock), 10 µg/ml of this antibody; binding of reporter mAb KIM127 read
Procedure: as §1, §4

Row | Binder | KIM127 (Expression relative to IgG4) [1] | Mn^2+ MFI [2] [MFI] | Mock/Mn^2+ Ratio [3] | m24 (Expression relative to IgG4) [4] | Mock MFI [5] [MFI] | m24 (Expression relative to IgG4) [6] | KIM127 (Expression relative to IgG4) [7]
1 | anti-Mac-1 antibody clone 28A12 (antibody, human IgG4, V domains shown) VH: QVKLQESGPELVKPGASVKISCKASGYSFTDYNMNWVKQSNGKSLEWIGEINPGYGTSRYNQKFKDKATLTVDQSSSTAYMQLNSLTSEDSAVYYCARADVDYGDTMDYWGQGTTVTVSS VL: DIELTQSPAIMSASPGEKVTMTCSASSSVSDMHWYQQKSGNSPKRWIYDTSKLASGVPVRFSGSGSGTSYSLTISSMEAEDAATYYCQQWSSNPPTFGAGTKLELK | 0.87 relative to IgG4 | 37300 | 1.48 | 1.07 relative to IgG4 | 55200 | 0.88 relative to IgG4 | 1.02 relative to IgG4
2 | anti-Mac-1 antibody clone 27E12 (antibody, human IgG4, V domains shown) VH: QVQLQQSGTVLARPGASVKMSCKASGYTFTSYWMHWVKQRPGQGLEWIGAIYPGNSDTSYNQKFKGKAKLTAVTSASTAYMELSSLTNEDSAVYYCTRGGGSYEFAYWGQGTTVTVSS VL: DIELTQSPAIMSASPGEKVTMTCSVSSSVSYMYWYQQKPGSSPRLLIYDTSNLASGVPARFSGSGSGTSYSLTISSMEAEDAATYYCQQWSSNPFTFGSGTKLEIK | 0.71 relative to IgG4 | 50800 | 1.12 | 0.85 relative to IgG4 | 56800 | 0.64 relative to IgG4 | 1 relative to IgG4
3 | anti-Mac-1 antibody clone 28E07-HH (antibody, human IgG4, V domains shown) VH: QVQLVQSGAEVKKPGASVKVSCKASGYSFTDYNMNWVRQAPGQGLEWMGEINPGYGTSRYNQKFKDRVTMTRDTSISTAYMELSRLRSDDTAVYYCARADVDYGDVMDYWGQGTLVTVSS VL: EIVLTQSPATLSLSPGERATLSCSASSSVSYMHWYQQKPGQAPRLLIYDTSKLASGIPARFSGSGSGTDFTLTISSLEPEDFAVYYCQQWSSNPPTFGQGTKLEIK | 0.87 relative to IgG4 | 1.02e+06 | 1.01 | 0.75 relative to IgG4 | 1.03e+06 | 0.83 relative to IgG4 | 0.9 relative to IgG4
4 | anti-Mac-1 antibody clone 28D06 (antibody, human IgG4, V domains shown) VH: QVKLQQSGPELVKPGASVKISCKASGYSFTDYNMNWVKQSNGKSLEWIGEINPNYGTTRYNQKFKGKATLTVDQSSSTAYMQLNSLTSEDSAVYYCARPSIYYDYDDAMDYWGQGTTVTVSS VL: DIELTQSPAIMSASPGEKVTMTCSASSSVNYMYWYQQKPGSSPRLLIYDTSNLASGVPVRFSGSGSGTSYSLTISRMEAEDAATYYCQQWITYPPTLTFGAGTKLEIK | 0.69 relative to IgG4 | 30600 | 1.69 | 0.62 relative to IgG4 | 51800 | 0.65 relative to IgG4 | 0.99 relative to IgG4
5 | anti-Mac-1 antibody clone 24G05 (antibody, human IgG4, V domains shown) VH: EVQLVESGGGLVQPGGSLRLSCAASGFTFTSYWMTWVRQAPGKGLEWVSTIVGGGGEADYADSVKGRFTISRDNSKNTLYLQMNSLRAEDTAVYYCARDYVADNHGAMDYWGQGTLVTVSS VL: DIQMTQSPSSLSASVGDRVTITCRASQGLSSYLNWYQQKPGKAPKLLIYGMSTLQSGVPSRFSGSGSGTDFTLTISSLQPEDFATYYCMQYYHWPYTFGQGTKVEIK | 1.64 relative to IgG4 | 44800 | 1.25 | 3.85 relative to IgG4 | 55900 | 25 relative to IgG4 | 2.22 relative to IgG4
6 | anti-Mac-1 antibody clone H4L2 (antibody, human IgG4, V domains shown) VH: QVQLVQSGAEVKKPGASVKVSCKASGYTFTNYWINWVRQAPGQRLEWMGNIYPSDTYINHNQKFKDRVTITRDTSASTAYMELSSLRSEDTAVYYCARSAYANYFDYWGQGTLVTVSS VL: EIVMTQSPATLSVSPGERATLSCRASQNIGTSIHWYQQKPGQAPRLLIYYASESISGIPARFSGSGSGTEFTLTISSLQSEDFAVYYCQQSDSWPTLTFGQGTKLEIK | 0.63 relative to IgG4 | 45700 | 0.91 | 0.23 relative to IgG4 | 41600 | 0.44 relative to IgG4 | 1.11 relative to IgG4
7 | anti-Mac-1 antibody clone DF4-25 (antibody, human IgG4, V domains shown) VH: EVQLVESGGGLVQPGGSLRLSCAASGFTFKDYWLSWVRQAPGKGLEWVSIINYGGSETYYADSVKGRFTISRDNSKNTLYLQMNSLRAEDTAVYYCARTQTSYVMDYWGQGTLVTVSS VL: DIQMTQSPSSLSASVGDRVTITCRASQSVRSGLNWYQQKPGKAPKLLIYAASSLQSGVPRRFSGSGSGTDFTLTISSLQPEDFATYYCMQSHSWPLTFGQGTKVEIK | 1.75 relative to IgG4 | 30500 | 1.17 | 4.34 relative to IgG4 | 35700 | 24 relative to IgG4 | 2.23 relative to IgG4
8 | anti-Mac-1 antibody clone 24G09 (antibody, human IgG4, V domains shown) VH: EVQLVESGGGLVQPGGSLRLSCAASGFTFSDYAIGWVRQAPGKGLEWVSTIYWSGSNAYYADSVKGRFTISRDNSKNTLYLQMNSLRAEDTAVYYCARLFTLGYHGFDVWGQGTLVTVSS VL: DIQMTQSPSSLSASVGDRVTITCRASQSINTYLNWYQQKPGKAPKLLIYDASNLQSGVPSRFSGSGSGTDFTLTISSLQPEDFATYYCQQYDDLPFTFGQGTKVEIK | 0.89 relative to IgG4 | 26900 | 1.1 | 1 relative to IgG4 | 29500 | 0.72 relative to IgG4 | 1.01 relative to IgG4
9 | anti-Mac-1 antibody clone 24F09 (antibody, human IgG4, V domains shown, also called 24F9) VH: EVQLVESGGGLVQPGGSLRLSCAASGFTFSSAWMSWVRQAPGKGLEWVSTIYWSGSEINYADSVKGRFTISRDNSKNTLYLQMNSLRAEDTAVYYCARSFASGESAMDVWGQGTLVTVSS VL: DIQMTQSPSSLSASVGDRVTITCRASQSISNYLAWYQQKPGKAPKLLIYDASNLQSGVPSRFSGSGSGTDFTLTISSLQPEDFATYYCQQYYSSPPTFGQGTKVEIK | 1.71 relative to IgG4 | 33900 | 1.17 | 4.01 relative to IgG4 | 39800 | 19.1 relative to IgG4 | 2.05 relative to IgG4
10 | anti-Mac-1 antibody clone 24F08 (antibody, human IgG4, V domains shown) VH: EVQLVESGGGLVQPGGSLRLSCAASGFTFSSYWMSWVRQAPGKGLEWVSIINYSGREADYADSVKGRFTISRDNSKNTLYLQMNSLRAEDTAVYYCARDGSYVGQAHEAFDIWGQGTLVTVSS VL: DIQMTQSPSSLSASVGDRVTITCRASQSISKYLAWYQQKPGKAPKLLIYGTSNLQSGVPSRFSGSGSGTDFTLTISSLQPEDFATYYCQQSRSWPLTFGQGTKVEIK | 1.73 relative to IgG4 | 42100 | 1.19 | 4.01 relative to IgG4 | 50000 | 21.2 relative to IgG4 | 2.17 relative to IgG4
